Assay results published in US20220242962A1 (APTEVO RESEARCH AND DEVELOPMENT, published 2022).

T1: Full-length Human OX40 (human, UniProt P43489 29-277)
T1 sequence: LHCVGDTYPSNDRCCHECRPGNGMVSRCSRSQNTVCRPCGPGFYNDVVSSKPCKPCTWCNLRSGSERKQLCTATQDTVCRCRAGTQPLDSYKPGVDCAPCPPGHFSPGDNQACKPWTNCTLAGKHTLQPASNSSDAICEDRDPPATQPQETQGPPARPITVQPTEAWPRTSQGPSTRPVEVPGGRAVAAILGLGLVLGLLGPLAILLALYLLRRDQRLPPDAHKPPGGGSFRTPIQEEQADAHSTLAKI

T2: Fc gamma receptor RIIA R167 (human, UniProt P12318 36-218)
T2 construct: soluble SPR analyte
T2 sequence (looked up): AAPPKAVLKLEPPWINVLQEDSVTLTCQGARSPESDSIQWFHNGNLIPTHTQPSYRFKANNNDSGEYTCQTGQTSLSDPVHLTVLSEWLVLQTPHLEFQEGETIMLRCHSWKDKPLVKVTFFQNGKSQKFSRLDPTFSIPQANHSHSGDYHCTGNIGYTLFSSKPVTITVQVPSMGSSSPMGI

T3: Fc gamma receptor RIIB/C (human, UniProt P31994 46-217)
T3 construct: soluble SPR analyte
T3 sequence (looked up): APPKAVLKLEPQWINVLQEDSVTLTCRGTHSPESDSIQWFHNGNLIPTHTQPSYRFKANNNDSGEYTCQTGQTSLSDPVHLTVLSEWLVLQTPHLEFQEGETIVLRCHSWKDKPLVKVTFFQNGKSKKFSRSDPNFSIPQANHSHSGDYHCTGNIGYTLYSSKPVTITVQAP

T4: Fc gamma receptor RIIA H167 (human, UniProt P12318 36-218)
T4 construct: soluble SPR analyte
T4 sequence (looked up): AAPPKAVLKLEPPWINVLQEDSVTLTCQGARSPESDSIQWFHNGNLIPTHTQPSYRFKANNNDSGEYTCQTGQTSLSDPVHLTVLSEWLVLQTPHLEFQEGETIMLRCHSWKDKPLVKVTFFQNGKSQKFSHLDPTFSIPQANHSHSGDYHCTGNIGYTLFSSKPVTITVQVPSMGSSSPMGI

T5: Full-length Cyno OX40 (cynomolgus monkey, UniProt P43489 29-277 (human entry))
T5 construct: on CHO-K1SV cells; also called OXF004; cynomolgus OX40
T5 chain: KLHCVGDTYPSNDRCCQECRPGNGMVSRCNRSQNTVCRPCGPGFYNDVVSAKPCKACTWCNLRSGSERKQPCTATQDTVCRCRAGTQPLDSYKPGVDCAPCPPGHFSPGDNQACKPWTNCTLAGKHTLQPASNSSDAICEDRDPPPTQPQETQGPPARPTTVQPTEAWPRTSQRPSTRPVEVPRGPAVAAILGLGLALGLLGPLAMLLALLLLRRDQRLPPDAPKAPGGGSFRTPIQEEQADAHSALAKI

T6: Full-length Cyno 4-1BB (cynomolgus monkey, UniProt Q07011 24-255 (human entry))
T6 construct: on Jurkat or CHO cells; also called FOB006; cynomolgus 4-1BB
T6 chain: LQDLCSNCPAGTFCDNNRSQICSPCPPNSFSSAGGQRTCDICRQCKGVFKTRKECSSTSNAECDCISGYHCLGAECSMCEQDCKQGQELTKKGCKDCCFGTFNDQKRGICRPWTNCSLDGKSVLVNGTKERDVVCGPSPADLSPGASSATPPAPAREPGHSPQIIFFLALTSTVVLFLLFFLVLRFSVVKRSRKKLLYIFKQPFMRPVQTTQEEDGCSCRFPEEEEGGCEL


Tests used:
Full-length Human 4-1BB = Full-length Human 4-1BB (human, UniProt Q07011 24-255); assay: cell-based or functional assay
Chain of Full-length Human 4-1BB (Q07011 24-255): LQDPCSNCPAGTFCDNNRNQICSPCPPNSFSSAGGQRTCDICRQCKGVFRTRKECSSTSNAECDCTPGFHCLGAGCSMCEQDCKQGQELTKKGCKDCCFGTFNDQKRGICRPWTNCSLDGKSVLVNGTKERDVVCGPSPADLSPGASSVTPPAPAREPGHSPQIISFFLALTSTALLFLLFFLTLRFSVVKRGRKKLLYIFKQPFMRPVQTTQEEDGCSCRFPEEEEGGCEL

Full-length Human OX40 = molecular target: T1, Full-length Human OX40; assay: cell-based or functional assay
[1] = molecular target: T2, Fc gamma receptor RIIA R167; assay: SPR, construct immobilized, receptor injected at 2 uM
Procedure: (§1) Fcγ receptor binding to bispecific proteins was measured by Surface Plasmon Resonance on a Biacore 8K instrument at room temperature. Bispecific proteins with modified Fc regions to reduce binding to Fcγ receptors were directly immobilized on the surface of a CM5 sensor chip to a surface density of 4000 RU. A bispecific ADAPTIR™ protein with a wild type Fc was similarly immobilized to the surface as a positive control and used as a comparator to evaluate the reduction in binding resulting from changes incorporated into the Fc region amino acid sequence. Fcγ receptors (purchased from R&D Systems) were diluted to either 100 nM (FcγRI) or 2 μM (all other Fcγ receptors) in HBS-EP+ buffer before injecting over the surface of the prepared sensor chip at 30 μL/min for 60 seconds. Maximum RU values during association phase of each injection were used to compare the extent of binding of the modified Fc to wild type value and are reported in Table 17 below.

Fc gamma receptor RIIB/C = molecular target: T3, Fc gamma receptor RIIB/C; assay: as above
Procedure: as §1

[2] = molecular target: T4, Fc gamma receptor RIIA H167; assay: as above
Procedure: as §1

Full-length Cyno OX40 = molecular target: T5, Full-length Cyno OX40; assay: flow cytometry on CHOK1SV cells transfected with cynomolgus OX40, goat anti-human Fc secondary antibody, MFI (Mean)
Procedure: (§2) Serial dilutions of ADAPTIR™ constructs were incubated with transfected target cells and subsequently labelled with a fluorescently-conjugated goat-a-human Fc secondary antibody. […] (See Example 25.)

Full-length Cyno 4-1BB = molecular target: T6, Full-length Cyno 4-1BB; assay: flow cytometry on Jurkat cells transfected with cynomolgus 4-1BB, goat anti-human Fc secondary antibody, MFI (Mean)
Procedure: as §2
Wherever 4-1BB Reporter Assay Max induction is given: unit not given here.
Wherever OX40 Reporter Assay Max induction is given: unit not given here.

4-1BB Reporter Assay EC50 (Full-length Human 4-1BB) [nM]	4-1BB Reporter Assay Max induction (Full-length Human 4-1BB)	OX40 Reporter Assay EC50 (Full-length Human OX40) [nM]	OX40 Reporter Assay Max induction (Full-length Human OX40)	Max RU value during association [1] [RU]	Max RU value during association (Fc gamma receptor RIIB/C) [RU]	Max RU value during association [2] [RU]	EC50 (read off the curve) (Full-length Cyno OX40) [nM]	EC50 (read off the curve) (Full-length Cyno 4-1BB) [nM]	Binder
0.017	1.37e+06	0.021	5.86e+06	92	21	14	~2	~0.4	FXX01066 (bispecific antibody, ADAPTIR scFv-Fc-scFv, anti-4-1BB (VH-VL) N-terminal, anti-OX40 C-terminal, PAA (del) Fc; also called FX01066) EVQLVQSGAEVKKPGASVKVSCKASGYTFTSYWMNWVRQAPGQGLEWMGNIYPSGGSTNYAQKFQGRVTMTVDTSTSTVYMELSSLRSEDTAVYYCASFSDGYYAYAMDYWGQGTLVTVSSGGGGSGGGGSGGGGSGGGGSEIVMTQSPATLSLSPGERATLSCRASQSVSSYLNWYQQKPGQAPRLLIYYASRRHTGIPARFSGSGSGTDFTLTISSLQPEDFAVYYCQQGYNLPYTFGQGTKVEIKEPKSSDKTHTCPPCPAPPAAAPSVFLFPPKPKDTLMISRTPEVTCVVVDVSHEDPEVKFNWYVDGVEVHNAKTKPREEQYNSTYRVVSVLTVLHQDWLNGKEYKCAVSNKALPAPIEKTISKAKGQPREPQVYTLPPSRDELTKNQVSLTCLVKGFYPSDIAVEWESNGQPENNYKTTPPVLDSDGSFFLYSKLTVDKSRWQQGNVFSCSVMHEALHNHYTQKSLSLSPGGGGSPSSYVLTQPPSVSVAPGQTARITCGGNNIGSKSVNWFQQKPGQAPVLVVYDDSGRPSGIPERFSGSTSGNTATLTISRVEAGDEADYYCQVWDSSSDHVVFGGGTKLTVLGGGGSGGGGSGGGGSGGGGSQVQLVESGGGVVQPGRSLRLSCAASGFTLSYYGMHWVRQAPGKGLEWVAAISHDGSDKYYADSVKGRFTISRDNSKNTLYLQMNSLRAEDTAVYYCSNDQFDPWGQGTLVTVSSR
0.018	1.44e+06	0.017	5.89e+06	94	21	14	1 to 2	~0.3	FXX01101 (bispecific antibody, ADAPTIR anti-4-1BB (HL) x anti-OX40 with T86R; PAA (del) Fc; also called FX01101) EVQLVQSGAEVKKPGASVKVSCKASGYTFTSYWMNWVRQAPGQGLEWMGNIYPSGGSTNYAQKFQGRVTMTVDTSTSTVYMELSSLRSEDTAVYYCASFSDGYYAYAMDYWGQGTLVTVSSGGGGSGGGGSGGGGSGGGGSEIVMTQSPATLSLSPGERATLSCRASQSVSSYLNWYQQKPGQAPRLLIYYASRRHTGIPARFSGSGSGTDFTLTISSLQPEDFAVYYCQQGYNLPYTFGQGTKVEIKEPKSSDKTHTCPPCPAPPAAAPSVFLFPPKPKDTLMISRTPEVTCVVVDVSHEDPEVKFNWYVDGVEVHNAKTKPREEQYNSTYRVVSVLTVLHQDWLNGKEYKCAVSNKALPAPIEKTISKAKGQPREPQVYTLPPSRDELTKNQVSLTCLVKGFYPSDIAVEWESNGQPENNYKTTPPVLDSDGSFFLYSKLTVDKSRWQQGNVFSCSVMHEALHNHYTQKSLSLSPGGGGSPSSYVLTQPPSVSVAPGQTARITCGGNNIGSKSVNWFQQKPGQAPVLVVYDDSGRPSGIPERFSGSTSGNTATLTISRVEAGDEADYYCQVWDSSSDHVVFGGGTKLTVLGGGGSGGGGSGGGGSGGGGSQVQLVESGGGVVQPGRSLRLSCAASGFTLSYYGMHWVRQAPGKGLEWVAAISHDGSDKYYADSVKGRFTISRDNSKNRLYLQMNSLRAEDTAVYYCSNDQFDPWGQGTLVTVSSR
0.021	1.4e+06	0.016	5.78e+06	88	19	13	1 to 2	~0.3	FXX01102 (bispecific antibody, ADAPTIR anti-4-1BB (HL) x anti-OX40 with Q17K and T86R; PAA (del) Fc; also called FX01102) EVQLVQSGAEVKKPGASVKVSCKASGYTFTSYWMNWVRQAPGQGLEWMGNIYPSGGSTNYAQKFQGRVTMTVDTSTSTVYMELSSLRSEDTAVYYCASFSDGYYAYAMDYWGQGTLVTVSSGGGGSGGGGSGGGGSGGGGSEIVMTQSPATLSLSPGERATLSCRASQSVSSYLNWYQQKPGQAPRLLIYYASRRHTGIPARFSGSGSGTDFTLTISSLQPEDFAVYYCQQGYNLPYTFGQGTKVEIKEPKSSDKTHTCPPCPAPPAAAPSVFLFPPKPKDTLMISRTPEVTCVVVDVSHEDPEVKFNWYVDGVEVHNAKTKPREEQYNSTYRVVSVLTVLHQDWLNGKEYKCAVSNKALPAPIEKTISKAKGQPREPQVYTLPPSRDELTKNQVSLTCLVKGFYPSDIAVEWESNGQPENNYKTTPPVLDSDGSFFLYSKLTVDKSRWQQGNVFSCSVMHEALHNHYTQKSLSLSPGGGGSPSSYVLTQPPSVSVAPGKTARITCGGNNIGSKSVNWFQQKPGQAPVLVVYDDSGRPSGIPERFSGSTSGNTATLTISRVEAGDEADYYCQVWDSSSDHVVFGGGTKLTVLGGGGSGGGGSGGGGSGGGGSQVQLVESGGGVVQPGRSLRLSCAASGFTLSYYGMHWVRQAPGKGLEWVAAISHDGSDKYYADSVKGRFTISRDNSKNRLYLQMNSLRAEDTAVYYCSNDQFDPWGQGTLVTVSSR
0.019	1.43e+06	0.017	6.09e+06	86	20	13	1 to 2	~0.3	FXX01111 (bispecific antibody, ADAPTIR anti-4-1BB x anti-OX40, pI variant; PAA (del) Fc) EVQLVQSGAEVKKPGASVKVSCKASGYTFTSYWMNWVRQAPGQGLEWMGNIYPSGGSTNYAQKFQGRVTMTVDTSTSTVYMELSSLRSEDTAVYYCASFSDGYYAYAMDYWGQGTLVTVSSGGGGSGGGGSGGGGSGGGGSEIVMTQSPATLSLSPGERATLSCRASQSVSSYLNWYQQKPGQAPRLLIYYASRRHTGIPARFSGSGSGTDFTLTISSLQPEDFAVYYCQQGYNLPYTFGQGTKVEIKEPKSSDKTHTCPPCPAPPAAAPSVFLFPPKPKDTLMISRTPEVTCVVVDVSHEDPEVKFNWYVDGVEVHNAKTKPREEQYNSTYRVVSVLTVLHQDWLNGKEYKCAVSNKALPAPIEKTISKAKGQPREPQVYTLPPSRDELTKNQVSLTCLVKGFYPSDIAVEWESNGQPENNYKTTPPVLDSDGSFFLYSKLTVDKSRWQQGNVFSCSVMHEALHNHYTQKSLSLSPGGGGSPSSYVLTQPPSVSVAPGQTARITCGGNNIGSKSVNWFQQKPGQAPVLVVYDDSGRPSGVPNRFSGSTSGNTATLTISRVEAGDEADYYCQVWDSSSDHVVFGGGTKLTVLGGGGSGGGGSGGGGSGGGGSQVQLVESGGGVVQPGRSLRLSCAASGFTLSYYGMHWVRQAPGKGLEWVAAISHDGSDKYYADSVKGRFTISRDNSKNTLYLQMNSLRAEDTAVYYCSNDQFDPWGQGTLVTVSSR
